Assay [1] concerns the target T1, σN-NpuN-Mdm2* bait fusion (residues 17-124 of Mdm2) (UniProt Q00987 17-124). The assay is described as follows: cell-based or functional assay.
The target of assay [2] is T1, σN-NpuN-Mdm2* bait fusion (residues …). The assay is described as follows: split intein σ factor circuit in E. coli, sfGFP read by flow cytometry.

T1 sequence (Q00987 other isoform, or with tags, fused parts or gaps limits assumed): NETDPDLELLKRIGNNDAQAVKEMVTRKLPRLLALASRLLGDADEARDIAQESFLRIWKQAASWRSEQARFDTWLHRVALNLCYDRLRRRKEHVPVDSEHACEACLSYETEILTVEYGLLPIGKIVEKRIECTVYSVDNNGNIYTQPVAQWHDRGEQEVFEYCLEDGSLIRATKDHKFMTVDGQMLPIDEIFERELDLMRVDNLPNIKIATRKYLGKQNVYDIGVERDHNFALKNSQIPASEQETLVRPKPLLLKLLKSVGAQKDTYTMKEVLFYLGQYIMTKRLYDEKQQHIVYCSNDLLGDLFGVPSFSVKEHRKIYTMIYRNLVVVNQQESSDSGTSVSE

B1: ACE2*-NpuC-σC peptide fusion (N-terminal residues 19-56 of ACE2) (other, not shown: small tags and cut ends)
chain: STIEEQAKTFLDKFNHEAEDLFYQSSLASWNYNTNITERGGKGGPGGRGGVGGGGGIGGGFIASNCWLDTRPAPDEQLEASAQSRRMAQALDQLPDRQREAIVLQYYQELSNTEAAALMQISVEALESLLSRARRNLRSHLAEAPGADLSGRRKP
notes: also called ACE2a1; pAMK-857
Consider B1, for which, in assay [1], the “drop of the fluorescent output of the circuit relative to the PMI/Mdm2* pair” value was 15 fold. Besides, the binding result in assay [2] is listed as “no binding”.

(Values after US20230227508A1 (MIT, published 2023).)
